Results published in patent publication US20030118612A1 (MAXYGEN, published 2003).
Positions count from the first letter of the chain named. In names and notes the source's numbering stands.

B1: G-CSF variant K16/34/40R S76 conjugated to SPA-PEG 5000 (ligand)
chain: TPLGPASSLPQSFLLRCLEQVRKIQGDGAALQERLCATYRLCHPEELVLLGHSLGIPWAPLSSCPSQALQLAGCLKQLHSGLFLYQGLLQALEGISPELGPTLDTLQLDVADFATTIWQQMEELGMAPALQPTQGAMPAFASAFQRRAGGVLVASHLQSFLEVSYRVLRHLAQP
modifications: SPA-PEG 5000 conjugated to the available PEGylation sites
B2: G-CSF variant K16/34/40R T105K conjugated to SPA-PEG 5000 (ligand)
chain: B1 chain with K76S, T105K
modifications: SPA-PEG 5000 conjugated to the available PEGylation sites
B3: G-CSF variant K16/34/40R T133K, non-conjugated (ligand)
chain: B1 chain with K76S, T133K
B4: G-CSF variant K16/34/40R S142K conjugated to SPA-PEG 5000 (ligand)
chain: B1 chain with K76S, S142K
modifications: SPA-PEG 5000 conjugated to the available PEGylation sites
B5: G-CSF variant K16/34/40R T133K conjugated to SPA-PEG 5000 (ligand)
chain: B1 chain with K76S, T133K
modifications: SPA-PEG 5000 conjugated to the available PEGylation sites
B6: G-CSF variant 16R conjugated to SPA-PEG 5000 (ligand)
chain: B1 chain with R34K, R40K, K76S
modifications: SPA-PEG 5000 conjugated to the available PEGylation sites
B7: G-CSF variant K16/34/40R Q77, non-conjugated (ligand)
chain: B1 chain with K76S, Q77K
B8: G-CSF variant K16/34/40R T105K, non-conjugated (ligand)
chain: B1 chain with K76S, T105K
B9: G-CSF variant K16/34/40R D104K, non-conjugated (ligand)
chain: B1 chain with K76S, D104K
B10: G-CSF variant K16/34/40R Q90K, non-conjugated (ligand)
chain: B1 chain with K76S, Q90K
B11: G-CSF variant K16/34/40R S80K, non-conjugated (ligand)
chain: B1 chain with K76S, S80K
B12: G-CSF variant K16/34/40R Q134K conjugated to SPA-PEG 5000 (ligand)
chain: B1 chain with K76S, Q134K
modifications: SPA-PEG 5000 conjugated to the available PEGylation sites
B13: G-CSF variant K16/34/40R D104K conjugated to SPA-PEG 5000 (ligand)
chain: B1 chain with K76S, D104K
modifications: SPA-PEG 5000 conjugated to the available PEGylation sites
B14: G-CSF variant K16/34/40R R147K, non-conjugated (ligand)
chain: B1 chain with K76S, R147K
B15: G-CSF variant 16Q, non-conjugated (ligand)
chain: B1 chain with R16Q, R34K, R40K, K76S
B16: G-CSF variant K16/34/40R Q134K, non-conjugated (ligand)
chain: B1 chain with K76S, Q134K
B17: G-CSF variant K16/34/40R Q77 conjugated to SPA-PEG 5000 (ligand)
chain: B1 chain with K76S, Q77K
modifications: SPA-PEG 5000 conjugated to the available PEGylation sites
B18: G-CSF variant K16/34/40R Q120K conjugated to SPA-PEG 5000 (ligand)
chain: B1 chain with K76S, Q120K
modifications: SPA-PEG 5000 conjugated to the available PEGylation sites
B19: G-CSF variant K16/34/40R Q120K, non-conjugated (ligand)
chain: B1 chain with K76S, Q120K
B20: G-CSF variant K16/34/40R S142K, non-conjugated (ligand)
chain: B1 chain with K76S, S142K
B21: G-CSF variant K16/34/40R Q90K conjugated to SPA-PEG 5000 (ligand)
chain: B1 chain with K76S, Q90K
modifications: SPA-PEG 5000 conjugated to the available PEGylation sites
B22: G-CSF variant K16/34/40R S80K conjugated to SPA-PEG 5000 (ligand)
chain: B1 chain with K76S, S80K
modifications: SPA-PEG 5000 conjugated to the available PEGylation sites

What follows are binders tested against T1, human G-CSF receptor (human, UniProt Q99062 25-836) (assay: cell-based or functional assay).
T1 sequence (looked up): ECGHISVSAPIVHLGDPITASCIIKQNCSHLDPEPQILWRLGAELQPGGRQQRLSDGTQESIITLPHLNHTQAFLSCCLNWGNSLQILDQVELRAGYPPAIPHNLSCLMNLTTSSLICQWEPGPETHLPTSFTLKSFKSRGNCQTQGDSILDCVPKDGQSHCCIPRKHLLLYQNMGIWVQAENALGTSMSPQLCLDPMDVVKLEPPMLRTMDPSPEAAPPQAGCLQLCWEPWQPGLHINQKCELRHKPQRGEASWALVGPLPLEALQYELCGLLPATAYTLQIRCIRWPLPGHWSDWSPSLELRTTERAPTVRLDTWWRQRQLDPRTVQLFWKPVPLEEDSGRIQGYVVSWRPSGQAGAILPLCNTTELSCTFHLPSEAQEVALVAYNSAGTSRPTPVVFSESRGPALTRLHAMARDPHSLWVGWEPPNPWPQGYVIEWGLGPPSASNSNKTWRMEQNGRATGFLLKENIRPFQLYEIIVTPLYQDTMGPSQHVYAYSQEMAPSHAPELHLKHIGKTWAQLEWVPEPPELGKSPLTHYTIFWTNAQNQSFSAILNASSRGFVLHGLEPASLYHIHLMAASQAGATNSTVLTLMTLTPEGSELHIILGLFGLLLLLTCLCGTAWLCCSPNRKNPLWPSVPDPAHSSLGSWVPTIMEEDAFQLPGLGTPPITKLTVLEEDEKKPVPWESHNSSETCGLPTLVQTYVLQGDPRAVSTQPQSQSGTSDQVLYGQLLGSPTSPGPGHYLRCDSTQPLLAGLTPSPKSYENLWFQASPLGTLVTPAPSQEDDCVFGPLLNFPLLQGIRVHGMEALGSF

Binder	EC50 (% of hG-CSF) conjugated to SPA-PEG 5000	EC50 (% of hG-CSF) non-conjugated
B1	20 % of hG-CSF	
B2	10 % of hG-CSF	
B3		30 % of hG-CSF
B4	7 % of hG-CSF	
B5	10 % of hG-CSF	
B6	1 % of hG-CSF	
B7		1 % of hG-CSF
B8		30 % of hG-CSF
B9		10 % of hG-CSF
B10		30 % of hG-CSF
B11		10 % of hG-CSF
B12	0.2 % of hG-CSF	
B13	0.9 % of hG-CSF	
B14		20 % of hG-CSF
B15		80 % of hG-CSF
B16		10 % of hG-CSF
B17	0 % of hG-CSF	
B18	20 % of hG-CSF	
B19		30 % of hG-CSF
B20		20 % of hG-CSF
B21	20 % of hG-CSF	
B22	0.2 % of hG-CSF	
